# Reference: patent US5723299A, “Somatostatin receptors” (Arch Development Corporation, priority 1995, dated 1998)
# Molecular target: T1, hGPR81 (SSTR1) (Homo sapiens, UniProt P30872)
# T1 construct: in vitro transcribed RNA injected into Xenopus laevis oocytes
# Test: Ca^2+ efflux in oocytes injected with hGPR81 RNA
# Type: cell-based
# Details: laevis oocytes injected with in vitro transcribed RNA
# Experimental: Since the presence of a short cytoplasmic loop connecting transmembrane segments M5-M6 is a feature of G protein-coupled receptors that bind peptide hormones and neuropeptides (E. M. Ross, 1990), peptides known to regulate hormone secretion from pancreatic islets were tested as ligands for hGPR81. Initial attempts to identify the ligand for hGPR81 by injecting RNA transcribed in vitro into fenopus laevis oocytes (Kayano et al., 1990) and assessing changes in basal or stimulated cAMP levels in response to […] [calcitonin-gene-related peptide, gastric inhibitory polypeptide, glucagon, glucagon-like peptide 1-(7-36 amide), and vasoactive intestinal peptide], or Ca^2+ efflux (Williams et al., 1988) (angiotensin II, bombesin, cholecystokinin, and vasopressin) were unsuccessful. The binding of radiolabeled peptides (galanin, glucagon and somatostatin) to COS-7 cells transiently expressing hGPR81 was attempted, as well.
# T1 sequence (P30872 whole entry): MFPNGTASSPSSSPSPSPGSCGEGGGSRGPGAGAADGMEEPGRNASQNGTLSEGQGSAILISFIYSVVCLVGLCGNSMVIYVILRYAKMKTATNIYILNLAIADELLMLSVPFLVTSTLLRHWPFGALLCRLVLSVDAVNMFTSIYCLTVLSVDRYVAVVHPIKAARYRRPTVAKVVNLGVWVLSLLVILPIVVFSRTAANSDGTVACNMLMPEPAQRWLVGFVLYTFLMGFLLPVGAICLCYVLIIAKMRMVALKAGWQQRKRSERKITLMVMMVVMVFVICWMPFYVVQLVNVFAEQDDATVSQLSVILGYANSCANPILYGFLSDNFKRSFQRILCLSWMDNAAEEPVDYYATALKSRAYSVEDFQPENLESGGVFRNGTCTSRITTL
molecule,measurement,value
"cholecystokinin: peptide known to regulate hormone secretion from pancreatic islets (peptide, UniProt P06307 21-115, looked up, Cholecystokinin, peptide known to regulate hormone secretion from pancreatic islets) Cholecystokinin: QPVPPADPAGSGLQRAEEAPRRQLRVSQRTDGESRAHLGALLARYIQQARKAPSGRMSIVKNLQNLDPSHRISDRDYMGWMDFGRRSAEEYEYPS",identification as ligand for hGPR81 by Ca^2+ efflux,unsuccessful
